Measurements reported in PMC8298264, “Function of cofactor Akirin2 in the regulation of gene expression in model human neutrophil-like HL60 cells” (Bioscience Reports, 2021).

B1: sp¦P30533¦AMRP_HUMAN (protein, UniProt P30533 35-357, looked up)
Alpha-2-macroglobulin …: YSREKNQPKPSPKRESGEEFRMEKLNQLWEKAQRLHLPPVRLAELHADLKIQERDELAWKKLKLDGLDEDGEKEARLIRNLNVILAKYGLDGKKDARQVTSNSLSGTQEDGLDDPRLEKLWHKAKTSGKFSGEELDKLWREFLHHKEKVHEYNVLLETLSRTEEIHENVISPSDLSDIKGSVLHSRHTELKEKLRSINQGLDRLRRVSHQGYSTEAEFEEPRVIDLWDLAQSANLTDKELEAFREELKHFEAKIEKHNHYQKQLEIAHEKLRHAESVGDGERVSRSREKHALLEGRTKELGYTVKKHLQDLSGRISRARHNEL
B2: sp¦Q15370¦ELOB_HUMAN (protein, UniProt Q15370 1-118, looked up)
Elongin-B: MDVFLMIRRHKTTIFTDAKESSTVFELKRIVEGILKRPPDEQRLYKDDQLLDDGKTLGECGFTSQTARPQAPATVGLAFRADDTFEALCIEPFSSPPELPDVMKPQDSGSSANEQAVQ
B3: sp¦O75368¦SH3L1_HUMAN (protein, UniProt O75368 1-114, looked up)
Adapter SH3BGRL: MVIRVYIASSSGSTAIKKKQQDVLGFLEANKIGFEEKDIAANEENRKWMRENVPENSRPATGYPLPPQIFNESQYRGDYDAFFEARENNAVYAFLGLTAPPGSKEAEVQAKQQA
B4: sp¦P08246¦ELNE_HUMAN (protein, UniProt P08246 30-267, looked up)
Neutrophil elastase: IVGGRRARPHAWPFMVSLQLRGGHFCGATLIAPNFVMSAAHCVANVNVRAVRVVLGAHNLSRREPTRQVFAVQRIFENGYDPVNLLNDIVILQLNGSATINANVQVAQLPAQGRRLGNGVQCLAMGWGLLGRNRGIASVLQELNVTVVTSLCRRSNVCTLVRGRQAGVCFGDSGSPLVCNGLIHGIASFVRGGCASGLYPDAFAPVAQFVNWIDSIIQRSEDNPCPHPRDPDPASRTH
B5: sp¦Q9Y2Z0¦SGT1_HUMAN (protein, UniProt Q9Y2Z0 2-365, looked up)
Protein SGT1 homolog: AAAAAGTATSQRFFQSFSDALIDEDPQAALEELTKALEQKPDDAQYYCQRAYCHILLGNYCVAVADAKKSLELNPNNSTAMLRKGICEYHEKNYAAALETFTEGQKLDIETGFHRVGQAGLQLLTSSDPPALDSQSAGITGADANFSVWIKRCQEAQNGSESEVWTHQSKIKYDWYQTESQVVITLMIKNVQKNDVNVEFSEKELSALVKLPSGEDYNLKLELLHPIIPEQSTFKVLSTKIEIKLKKPEAVRWEKLEGQGDVPTPKQFVADVKNLYPSSSPYTRNWDKLVGEIKEEEKNEKLEGDAALNRLFQQIYSDGSDEVKRAMNKSFMESGGTVLSTNWSDVGKRKVEINPPDDMEWKKY
B6: sp¦P40121¦CAPG_HUMAN (protein, UniProt P40121 1-348, looked up)
Macrophage-capping protein: MYTAIPQSGSPFPGSVQDPGLHVWRVEKLKPVPVAQENQGVFFSGDSYLVLHNGPEEVSHLHLWIGQQSSRDEQGACAVLAVHLNTLLGERPVQHREVQGNESDLFMSYFPRGLKYQEGGVESAFHKTSTGAPAAIKKLYQVKGKKNIRATERALNWDSFNTGDCFILDLGQNIFAWCGGKSNILERNKARDLALAIRDSERQGKAQVEIVTDGEEPAEMIQVLGPKPALKEGNPEEDLTADKANAQAAALYKVSDATGQMNLTKVADSSPFALELLISDDCFVLDNGLCGKIYIWKGRKANEKERQAALQVAEGFISRMQYAPNTQVEILPQGHESPIFKQFFKDWK
B7: sp¦Q9P013¦CWC15_HUMAN (protein, UniProt Q9P013 2-229, looked up)
Spliceosome-associated …: TTAARPTFEPARGGRGKGEGDLSQLSKQYSSRDLPSHTKIKYRQTTQDAPEEVRNRDFRRELEERERAAAREKNRDRPTREHTTSSSVSKKPRLDQIPAANLDADDPLTDEEDEDFEEESDDDDTAALLAELEKIKKERAEEQARKEQEQKAEEERIRMENILSGNPLLNLTGPSQPQANFKVKRRWDDDVVFKNCAKGVDDQKKDKRFVNDTLRSEFHKKFMEKYIK
B8: Eosinophil cationic protein (protein, UniProt P12724 28-160, looked up)
Eosinophil cationic protein: RPPQFTRAQWFAIQHISLNPPRCTIAMRAINNYRWRCKNQNTFLRTTFANVVNVCGNQSIRCPHNRTLNNCHRSRFRVPLLHCDLINPGAQNISNCTYADRPGRRFYVVACDNRDPRDSPRYPVVPVHLDTTI
B9: sp¦Q9UK45¦LSM7_HUMAN (protein, UniProt Q9UK45 2-103, looked up)
U6 snRNA-associated Sm-like …: ADKEKKKKESILDLSKYIDKTIRVKFQGGREASGILKGFDPLLNLVLDGTIEYMRDPDDQYKLTEDTRQLGLVVCRGTSVVLICPQDGMEAIPNPFIQQQDA
B10: sp¦O95816¦BAG2_HUMAN (protein, UniProt O95816 2-211, looked up)
BAG family molecular …: AQAKINAKANEGRFCRSSSMADRSSRLLESLDQLELRVEALREAATAVEQEKEILLEMIHSIQNSQDMRQISDGEREELNLTANRLMGRTLTVEVSVETIRNPQQQESLKHATRIIDEVVNKFLDDLGNAKSHLMSLYSACSSEVPHGPVDQKFQSIVIGCALEDQKKIKRRLETLLRNIENSDKAIKLLEHSKGAGSKTLQQNAESRFN
B11: sp¦P04080¦CYTB_HUMAN (protein, UniProt P04080 1-98, looked up)
Cystatin-B: MMCGAPSATQPATAETQHIADQVRSQLEEKENKKFPVFKAVSFKSQVVAGTNYFIKVHVGDEDFVHLRVFQSLPHENKPLTLSNYQTNKAKHDELTYF
B12: sp¦O43633¦CHM2A_HUMAN (protein, UniProt O43633 1-222, looked up)
Charged multivesicular body …: MDLLFGRRKTPEELLRQNQRALNRAMRELDRERQKLETQEKKIIADIKKMAKQGQMDAVRIMAKDLVRTRRYVRKFVLMRANIQAVSLKIQTLKSNNSMAQAMKGVTKAMGTMNRQLKLPQIQKIMMEFERQAEIMDMKEEMMNDAIDDAMGDEEDEEESDAVVSQVLDELGLSLTDELSNLPSTGGSLSVAAGGKKAEAAASALADADADLEERLKNLRRD
B13: sp¦P21953¦ODBB_HUMAN (protein, UniProt P21953 51-392, looked up)
2-oxoisovalerate …: VAHFTFQPDPEPREYGQTQKMNLFQSVTSALDNSLAKDPTAVIFGEDVAFGGVFRCTVGLRDKYGKDRVFNTPLCEQGIVGFGIGIAVTGATAIAEIQFADYIFPAFDQIVNEAAKYRYRSGDLFNCGSLTIRSPWGCVGHGALYHSQSPEAFFAHCPGIKVVIPRSPFQAKGLLLSCIEDKNPCIFFEPKILYRAAAEEVPIEPYNIPLSQAEVIQEGSDVTLVAWGTQVHVIREVASMAKEKLGVSCEVIDLRTIIPWDVDTICKSVIKTGRLLISHEAPLTGGFASEISSTVQEECFLNLEAPISRVCGYDTPFPHIFEPFYIPDKWKCYDALRKMINY
B14: sp¦P24534¦EF1B_HUMAN (protein, UniProt P24534 2-225, looked up)
Elongation factor 1-beta: GFGDLKSPAGLQVLNDYLADKSYIEGYVPSQADVAVFEAVSSPPPADLCHALRWYNHIKSYEKEKASLPGVKKALGKYGPADVEDTTGSGATDSKDDDDIDLFGSDDEEESEEAKRLREERLAQYESKKAKKPALVAKSSILLDVKPWDDETDMAKLEECVRSIQADGLVWGSSKLVPVGYGIKKLQIQCVVEDDKVGTDMLEEQITAFEDYVQSMDVAAFNKI
B15: sp¦P30740¦ILEU_HUMAN (protein, UniProt P30740 1-379, looked up)
Leukocyte elastase inhibitor: MEQLSSANTRFALDLFLALSENNPAGNIFISPFSISSAMAMVFLGTRGNTAAQLSKTFHFNTVEEVHSRFQSLNADINKRGASYILKLANRLYGEKTYNFLPEFLVSTQKTYGADLASVDFQHASEDARKTINQWVKGQTEGKIPELLASGMVDNMTKLVLVNAIYFKGNWKDKFMKEATTNAPFRLNKKDRKTVKMMYQKKKFAYGYIEDLKCRVLELPYQGEELSMVILLPDDIEDESTGLKKIEEQLTLEKLHEWTKPENLDFIEVNVSLPRFKLEESYTLNSDLARLGVQDLFNSSKADLSGMSGARDIFISKIVHKSFVEVNEEGTEAAAATAGIATFCMLMPEENFTADHPFLFFIRHNSSGSILFLGRFSSP
B16: sp¦P13693¦TCTP_HUMAN (protein, UniProt P13693 1-172, looked up)
Translationally-controlled …: MIIYRDLISHDEMFSDIYKIREIADGLCLEVEGKMVSRTEGNIDDSLIGGNASAEGPEGEGTESTVITGVDIVMNHHLQETSFTKEAYKKYIKDYMKSIKGKLEEQRPERVKPFMTGAAEQIKHILANFKNYQFFIGENMNPDGMVALLDYREDGVTPYMIFFKDGLEMEKC
B17: Gc-globulin (protein, UniProt P02774 17-474, looked up)
Vitamin D-binding protein: LERGRDYEKNKVCKEFSHLGKEDFTSLSLVLYSRKFPSGTFEQVSQLVKEVVSLTEACCAEGADPDCYDTRTSALSAKSCESNSPFPVHPGTAECCTKEGLERKLCMAALKHQPQEFPTYVEPTNDEICEAFRKDPKEYANQFMWEYSTNYGQAPLSLLVSYTKSYLSMVGSCCTSASPTVCFLKERLQLKHLSLLTTLSNRVCSQYAAYGEKKSRLSNLIKLAQKVPTADLEDVLPLAEDITNILSKCCESASEDCMAKELPEHTVKLCDNLSTKNSKFEDCCQEKTAMDVFVCTYFMPAAQLPELPDVELPTNKDVCDPGNTKVMDKYTFELSRRTHLPEVFLSKVLEPTLKSLGECCDVEDSTTCFNAKGPLLKKELSSFIDKGQELCADYSENTFTEYKKKLAERLKAKLPDATPTELAKLVNKHSDFASNCCSINSPPLYCDSEIDAELKNIL

tested on: human HL60 cells; assay: SWATH-MS proteomics, differential protein representation, akirin2 KO vs WT HL60 cells; assay type: cell-based; conditions: SWATH-MS, akirin2 KO vs WT HL60 cells; over-represented in KO
Method in brief: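 Three biological replicates per genotype; 150 µg protein FASP/trypsin digested; IDA library (3 µg digest); SWATH variable windows, 5 µg/sample, 3.6 s cycle; gradient 5–30% B 120 min then 30–60% B 15 min; 1% global FDR; TAS normalization.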

What does the source list for B1?
Fold Change: 1.604; Log (Fold Change): 0.2053

What does the source list for B2?
Fold Change: 1.578; Log (Fold Change): 0.1982

What does the source list for B3?
Fold Change: 1.672; Log (Fold Change): 0.2233

For B4, which “Fold Change” value is on record?
The value was 1.634.

And the “Log (Fold Change)” value?
The value was 0.2132.

Which “Fold Change” value does the source give for B5 here?
The value was 1.579.

What about the “Log (Fold Change)” value of the same molecule?
The value was 0.1983.

Which “Fold Change” value does the source give for B6 here?
Its value is 1.617.

And the “Log (Fold Change)” value?
Its value is 0.2088.

Which results are given for B7?
Fold Change: 1.692; Log (Fold Change): 0.2285

How did the “Fold Change” value turn out when B8 was run?
The value was 5.495.

What about the “Log (Fold Change)” value of the same molecule?
Its value is 0.7399.

For B9, which “Fold Change” value is on record?
Its value is 1.561.

And the “Log (Fold Change)” value?
Its value is 0.1935.

With B10 as the molecule, how does the “Fold Change” value read?
Its value is 1.58.

And the “Log (Fold Change)” value?
The value was 0.1985.

Which “Fold Change” value does the source give for B11 here?
The value was 1.628.

What about the “Log (Fold Change)” value of the same molecule?
The value was 0.2117.

Which results are given for B12?
Fold Change: 1.663; Log (Fold Change): 0.2209

What does the source list for B13?
Fold Change: 1.558; Log (Fold Change): 0.1926

B14 was tested. Which “Fold Change” value did it give?
Its value is 1.59.

What about the “Log (Fold Change)” value of the same molecule?
Its value is 0.2013.

B15 was tested. Which “Fold Change” value did it give?
The value was 1.651.

What about the “Log (Fold Change)” value of the same molecule?
The value was 0.2178.

Which “Fold Change” value does the source give for B16 here?
The value was 1.634.

And the “Log (Fold Change)” value?
Its value is 0.2132.

Which “Fold Change” value does the source give for B17 here?
Its value is 5.464.

And the “Log (Fold Change)” value?
Its value is 0.7375.
